This is an account of results in paper PMC5610242, “Stapled peptide inhibitors of RAB25 target context-specific phenotypes in cancer” (Nature Communications, 2017).

Data set [1] addresses T1, RAB11a (activated Q70L mutant) (Homo sapiens, UniProt P62491, Q70L).
T1 construct: GST-RAB11a (1–173, Q70L mutant) in pGEX5x-1; made in house; host or cells: E. coli BL21
T1 sequence (P62491 1-173 Q70L): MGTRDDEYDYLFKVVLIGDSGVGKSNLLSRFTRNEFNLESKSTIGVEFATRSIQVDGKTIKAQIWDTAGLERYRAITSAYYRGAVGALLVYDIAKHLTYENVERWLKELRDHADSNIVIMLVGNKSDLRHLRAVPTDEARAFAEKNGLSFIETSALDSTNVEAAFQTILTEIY
Description: Fluorescence polarization binding of FITC-labeled RFP peptides to RAB11a. The conditions noted are these: FP; for binding to RAB11a (in words): 25 nM FITC-RFP peptide. On the procedure: (§1) Fluorescence polarization assays were performed with for GST-RAB25 and GST-RAB11a to quantify binding to FITC-labeled unmodified and stapled RFP peptides. Initial fluorescence polarization measurements for RFP1−RFP13 were made by incubating FITC-RFP peptides (25 nM) with threefold dilutions of a given protein in FP buffer, consisting of 20 mM Tris pH 8.0, 150 mM NaCl, 5 mM MgCl2, 2 mM DTT, 10 μM GTP and 2% glycerol. Dilutions and incubations were performed in 96-well, black flat-bottom plates (Nunc) to a total volume of 100 μL, and equilibrated at room temperature for 30 min. Polarization was measured on a Spetramax-M5 multi-label plate reader (Molecular Devices) with λ ex = 485 nm and λ em = 525 nm. Polarization values were determined using the equation: P = (V − H)/(V + H), where P denotes polarization, V denotes vertical emission intensity and H represents horizontal emission intensity. Fraction bound was calculated using the equilibrium maximum polarization value obtained for a given protein among ligands, to which background-subtracted fluorescence polarization values were internally normalized. Fluorescence polarization measurements for FITC-RFP14, 24, 26, 31, and 32 were performed as detailed above with the exception that 10 nM FITC-ligand was used.

The target in another data set is T2, RAB25 (Homo sapiens, UniProt P57735).
T2 construct: GST-RAB25 (1–180) in pET41 Ek/LIC; made in house; host or cells: E. coli BL21
T2 sequence (P57735 1-180): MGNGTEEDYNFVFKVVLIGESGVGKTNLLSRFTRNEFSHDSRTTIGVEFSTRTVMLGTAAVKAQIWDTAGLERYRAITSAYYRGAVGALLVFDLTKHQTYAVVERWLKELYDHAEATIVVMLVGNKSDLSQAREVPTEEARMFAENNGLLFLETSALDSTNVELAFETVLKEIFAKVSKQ
The data set is described as follows: Fluorescence polarization binding of FITC-labeled RFP peptides to RAB25. To be noted: FP, 30 min room temperature; for binding to RAB25 (in words): 25 nM FITC-RFP peptide; for Kd: 10 nM FITC-ligand, GST-RAB25, FP buffer pH 8.0 with 10 μM GTP, mean with 95% C.I., triplicate, read-out: apparent Kd (95% C.I.) RAB25. On the procedure: as §1
Background: Polarisation of emitted light reports the rotation of a fluorescent probe.

Data set [2] can be described thus: Circular dichroism spectroscopy and thermal denaturation. The conditions noted are these: 50 μM peptide in deionized water, 190–260 nm, room temperature. It counts as physicochemical. As for the experimental part: Circular dichroism spectroscopy experiments were performed on a Jasco J-170 using a quartz cuvette (path length: 0.1 cm). Peptides were dissolved to 50 μM in deionized water and CD measurements were recorded at one nm increments between 190 and 260 nm, at room temperature. Thermal denaturation experiments were performed by recording CD absorbance at 222 nm at one-degree increments from 10 to 90 °C using a thermostat-controlled cuvette chamber. Raw denaturation data were fit to sigmoidal curves with Prizm 5 software, and the half-maximal temperature was reported as the peptide T m.
A general note: Circular dichroism is the unequal absorption of left and right circularly polarised light.

In a further data set the test system is MCF7 cells. The data set is described as follows: Confocal fluorescence microscopy for peptide cellular penetration. It is filed as in vitro ADME. The conditions noted are these: 5 μM FITC-labeled peptide, 10% FBS-containing RPMI, 8 h, 37 °C. As for the experimental part:
MCF7 cells were grown in 8-well chamber slides (Ibidi) and treated with FITC-labeled RFPs (5 μM) in 10% FBS-containing RPMI for 8 h at 37 °C. Cells were washed 5× in PBS, fixed in 2% paraformaldehyde/PBS and stained with DAPI according to the manufacturer’s protocol (Sigma). A coverslip was mounted onto the slide and confocal fluorescence microscopy performed with an Olympus DSU spinning disk confocal microscope (Olympus Corporation of the Americas, Center Valley, PA) with a Hamamatsu model C9100 EM-CCD camera (Hamamatsu Photonics, Skokie, IL) run by SlideBook v5.0 software (Intelligent Imaging Innovations, Denver, CO). Post-acquisition processing (multi-channel overlay) was performed using ImageJ software (NIH). Results are representative of images taken from three fields across the same well in at least two biological replicates.

Data set [3] has as its target T3, GST-RAB25 (1-180) (UniProt P57735 1-180).
T3 construct: RAB25, residues 1-180, in pET41 Ek/LIC; source: E. coli BL21, purified (glutathione sepharose, Superdex 75 gel filtration)
T3 sequence (looked up): T2 sequence (P57735 1-180)
Description: fluorescence polarisation; as for RFP1-13 but FITC-ligand 10 nM, with threefold dilutions of GST-RAB protein; 20 mM Tris pH 8.0, 150 mM NaCl, 5 mM MgCl2, 2 mM DTT, 10 µM GTP, 2% glycerol; room temperature, 30 min; apparent Kd from a sigmoidal (4-parameter) fit, 95% confidence interval. To be noted: both partners purified.

For data set [4], the target named is T4, GST-RAB11a (1-173, Q70L mutant) (UniProt P62491 1-173, Q70L).
T4 construct: source: E. coli BL21, purified (glutathione sepharose, Superdex 75 gel filtration)
T4 sequence (looked up): T1 sequence (P62491 1-173 Q70L)
Described as above. To be noted: both partners purified.

Another data set addresses T5, His6-RAB25 (1–180) (UniProt P57735 1-180).
T5 chain: T2 sequence (P57735 1-180)
The data set is described as follows: competition with bio-RFP14 (ALPHAscreen). For orientation: Alpha assays give light when donor and acceptor beads are brought close together.

Data set [5] deals with GST-RAB25 (1-180) (UniProt P57735). The data set is described as follows: fluorescence polarisation; FITC-peptide 25 nM with threefold dilutions of GST-RAB protein; 20 mM Tris pH 8.0, 150 mM NaCl, 5 mM MgCl2, 2 mM DTT, 10 µM GTP, 2% glycerol; room temperature, 30 min; apparent Kd from a sigmoidal (4-parameter) fit, 95% confidence interval.
The target in data set [6] is T4, GST-RAB11a (1-173, Q70L mutant). Described as above. The conditions noted are these: both partners purified.

Bridge positions count the residues as written; N and C are the ends. Square brackets hold non-standard residues; d marks the D form. Ends that are not written are not given here. Peptide text beside a SMILES is read from it. * marks the point of attachment. FITC = O=C1OC2(c3ccc(O)cc3Oc3cc(O)ccc32)c2ccc(NC(=S)*)cc21; Met(O) = CS(=O)CC[C@H](N)C(=O)O; S5 = C=CCCC[C@](C)(N)C(=O)O; Nle = CCCC[C@H](N)C(=O)O; PEG = not defined here; βAla = NCCC(=O)O Bounds are passed on as bounds.

Take “FIP2: unmodified Class-I peptide encompassing the RAB-binding domain of FIP2, FITC-labeled ({FITC-PEG}-ERDTHIRELEDYIDNLLVRVMEETPSILRVPR; reading uncertain)”: the “binding to RAB11a (in words)” value in [1] (30 min room temperature) is “essentially no binding”. Also, the “binding to RAB25 (in words)” value with RAB25 was “essentially no binding”.

On to “RFP5: peptide with oxidation of a methionine involved in binding, a separable byproduct of chemical synthesis ({FITC-PEG}-KQEEINFRLQDYIDRIIVAI[Met(O)]ETNPSILEVK; reading uncertain)”, for which the “loss of binding affinity for RAB11a on methionine oxidation” value in [1] (relative to non-oxidised peptide) was “~ fivefold”.

Regarding “RFP4: unmodified FIP4 peptide ({FITC-PEG}-EQEEINFRLRQYMDKIILAILDHNPSILEIKH; reading uncertain)”, the “CD spectrum, secondary structure” value in data set [2] is “partially disordered peptide folds”. For the same molecule, in data set [1] (30 min room temperature), the “binding to RAB11a (in words)” value was “micromolar affinities”. In addition, the “binding to RAB25 (in words)” value in the data set with RAB25 was “micromolar affinities”.

Regarding `CCCC[C@@H]1NC(=O)[C@H](C(C)C)NC(=O)[C@@](C)(NC(=O)[C@@H](NC(=O)[C@H](CC(C)C)NC(=O)[C@H](CC(C)C)NC(=O)[C@H](CCCNC(=N)N)NC(=O)[C@H](CC(=O)O)NC(=O)[C@@H](NC(=O)[C@H](Cc2ccc(O)cc2)NC(=O)[C@H](CC(N)=O)NC(=O)[C@H](CCC(=O)O)NC(=O)[C@H](CC(C)C)NC(=O)[C@H](CCC(=O)O)NC(=O)[C@H](CCCNC(=N)N)NC(=O)[C@@H](NC(=O)[C@H](CCC(N)=O)NC(=O)[C@H](CCCNC(=N)N)NC(=O)CCNC(=O)[C@@H](N)Cc2c[nH]c3ccccc23)C(C)C)[C@@H](C)CC)C(C)C)CCCC=CCCC[C@@](C)(C(=O)N[C@H](C(=O)N2CCC[C@H]2C(=O)N[C@@H](CC(N)=O)C(=O)N[C@H](C(=O)N[C@@H](CC(C)C)C(=O)N[C@@H](CCCNC(=N)N)C(=O)N[C@H](C(=O)N2CCC[C@H]2C(=O)N[C@@H](CCCNC(=N)N)C(N)=O)[C@@H](C)CC)[C@@H](C)CC)[C@@H](C)O)NC(=O)[C@H](CCC(=O)O)NC1=O` [RFP14] (H-W[βAla]RQVRELENYIDRLLV[S5]V[Nle]E[S5]TPNILRIPR-NH2; staple 18-22), the “cellular uptake and distribution” value in the data set on MCF7 cells was “significant cellular uptake and distribution throughout the cytosol and nucleus”; in the data set on MCF7 cells (listed as FITC-RFP14) it was “comparable cellular uptake”. Besides, the Kd at RAB25 amounted to 40 nM.

As for “KQEEINFRLQDYIDRIIVAIMETNPSILEVK-NH2 (C-terminus assumed) [RFP3]”, the “CD spectrum, secondary structure” value in [2] is given as “β-sheet”. Further, in data set [1] (30 min room temperature), the “binding to RAB11a (in words)” value is “micromolar affinities”. Moreover, the “binding to RAB25 (in words)” value on RAB25 is “micromolar affinities”.

With `CC[C@H](C)[C@H](NC(=O)[C@H](CCCNC(=N)N)NC(=O)[C@H](C)NC(=O)[C@H](C)NC(=O)[C@]1(C)CCCC=CCCC[C@](C)(NC(=O)[C@H](CC(N)=O)NC(=O)[C@H](CCC(N)=O)NC(=O)[C@H](CC(C)C)NC(=O)[C@H](CCCNC(=N)N)NC(=O)[C@H](Cc2ccccc2)NC(=O)[C@H](CC(N)=O)NC(=O)[C@@H](NC(=O)[C@H](CCCNC(=N)N)NC(=O)CCNC(=O)[C@@H](N)Cc2c[nH]c3ccccc23)[C@@H](C)CC)C(=O)N[C@@H]([C@@H](C)CC)C(=O)N[C@@H](CC(=O)O)C(=O)N[C@@H](CCCNC(=N)N)C(=O)N1)C(=O)N[C@@H](C)C(=O)N[C@@H](CCC(=O)O)C(=O)N[C@H](C(=O)N[C@@H](CC(N)=O)C(=O)N1CCC[C@H]1C(=O)N[C@@H](CO)C(=O)N[C@H](C(=O)N[C@@H](CC(C)C)C(=O)N[C@@H](CCCNC(=N)N)C(=O)N[C@H](C(=O)N[C@@H](CCCCN)C(N)=O)C(C)C)[C@@H](C)CC)[C@@H](C)O` [RFP32] (H-W[βAla]RINFRLQN[S5]IDR[S5]AARIAETNPSILRVK-NH2; staple 11-15), the Kd is > 5000 nM in data set [1] (10 nM FITC-ligand, GST-RAB11a (1–173, Q70L), FP buffer pH 8.0 with 10 μM GTP, 30 min room temperature, mean with 95% C.I., triplicate, read-out: apparent Kd (95% C.I.) RAB11a) and > 5000 nM on RAB25.

B1: FITC-RFP26 (optimized stapled peptide, 'IDR' staple) (peptide)
chain: {FITC-PEG-βAla}-RINFRLQN[S5]IDR[S5]IVRI[Nle]ETNPSILRVK
modifications: staple 9-13; reading uncertain
In the case of B1, the Kd was determined as 20 nM with GST-RAB25 (1-180) [3] and 90 nM in [4].

B2: FITC-RFP24 (optimized stapled peptide, 'IDR' staple) (peptide)
chain: {FITC-PEG-βAla}-RINFRLQN[S5]IDR[S5]IVRIFETNPSILRVK
modifications: staple 9-13; reading uncertain
Regarding B2, the results for the Kd (with GST-RAB25 (1-180) [3]; in [4]) were 160 nM and 560 nM, respectively.

B3: FIP3 peptide (residues 726–756) (peptide)
peptide: KQEEINFRLQDYIDRIIVAIMETNPSILEVK
B3: the 50% inhibitory concentration (IC50) with His6-RAB25 (1–180) was > 10000 nM.

B4: FITC-RFP3 (unmodified FIP3 RAB-binding domain peptide) (peptide)
peptide: {FITC-PEG}-KQEEINFRLQDYIDRIIVAIMETNPSILEVK
modifications: reading uncertain
notes: also called fRFP3; FIP3 peptide; source: synthetic peptide (Fmoc solid phase, HPLC purified)
In the case of B4, the Kd is > 5000 nM in the data set with GST-RAB25 (1-180) [5] and 2300 nM in data set [6].

B5: FITC-RFP5 (FIP3 RAB-binding domain peptide with oxidised methionine) (peptide)
peptide: {FITC-PEG}-KQEEINFRLQDYIDRIIVAI[Met(O)]ETNPSILEVK
modifications: reading uncertain
notes: also called fRFP5; source: synthetic peptide (separable byproduct of chemical synthesis, HPLC purified)
For B5, the Kd (with GST-RAB25 (1-180) [5]; in data set [6]) was > 5000 nM in each case.

B6: FITC-RFP14 (optimized stapled peptide, 'IME' staple) (peptide)
chain: {FITC-PEG-βAla}-RQVRELENYIDRLLV[S5]V[Nle]E[S5]TPNILRIPR
modifications: staple 16-20; reading uncertain
As to B6, the Kd in [4] worked out at 320 nM.

One may read the IC50 as the concentration that inhibits the measured activity by half. The low end stands for greater potency in that assay, the high end for weaker potency in that assay.
